Laboratory results from the DeepSol protein solubility set.

Assay: soluble on expression in E. coli; label from the status in PepcDB or PDB records

Sequence | soluble on expression in E. coli
MAESVNLVCTFCGSVCDDGQFDVEQFKSKKLCKLGSAKFSKKERIKAPMIDGKEVSYEEAIEKAAEILVNAKKPLLYGWASTVNEAIRLGVILTEKVGGVYDQCASVCHAPGTLAVIEEGLPGGTLGAIKNRADVVVFWGANPMEAHPRHGMRYSISAKGLLIKDRKQRKVIVVDVRPTKTAKLADEFIQIKPGYDYPIISALRAIISGNADAVPDEVGGVSKEKLVELAETMKNAKYGAVLYGLGVTQSRGRDRNVENAVKLIQLLNRHTRWVIWPMRGHYNVVGAGEVPAWEVGYQYAIDFSRGYPRFSPAEFSAVEVLKRKDCDAALIIASDPVAHFPRAAVKHLKEIPVIQIDPFPNMTTLVANVVIPSAVAGLEAEGTAYRMDGIALRVKKVVESSYWSDEQILEKLLEKVEELKG | not soluble
MSLKKQPLAYRMRPSNIDEVIGQQHLVGEGKIIRRMVDAGQLSSMILYGPPGVGKTSIAQAIAGSTDTHYKLLNAVVNNKKDMEIVVEEAKMSGQLILILDEVHRLDKGKQDFLLPHLEKGLLILIGATTANPFHSINPAIRSRCQIFELTPLTTDEIKVALTRALTDKTHGLGEEPVVISDEALAHFAFACGGDVRSALNGLELAVRSTQPNVKGEKEITLSVAEECIQRKSFHHDKDGDAHYDVLSAFQKSIRGSDVNAALHYLARLIEAGDLVSIGRRLLVIAYEDIGLANPQAGPRTLAAIEAAERLGFPEGRIPLANAVVELCLSPKSNSAYVALDAAIADIRKGHVGSVPAHLKDAHYKGAEQLGRGIGYKYPHDYERGWVKQQYLPDSLKSRAYYEPKRTGKFEDALADVYEKLRKSTFSEGHHHHHH | soluble
MSLTPPLAPKTVAALHRLGIRTLEELRQNGSVKAFLLLKASGLTLTKSTLWQLESLLDGTPPQEMSQAHKARLLAELKNHPPVAAFPPQEEMEHFMCEALRQAEQSSADGEIPVGAVIVSDGKIIASAHNTCIADCNVSRHAEINALAQAGREIQNYRLDGCDIYITLEPCAMCASALIQARIRRVIYGAAEPKTGAAGSIVNLFADKRLNTHTAIRGGILQEECRAVLSRFFQNKREGHHHHHH | soluble
MLLRFIIGLSSVLLVTGLFNPLLPTLGDYLLTDQQVQKYFSVAGPSNLAIGTCNSVPFASAQAGFASSVGLAPTTTWREANILTNATIGMIDQGMDQLAAVCQARQQFVQTLGAAYDTCTDRFYLISLGNTDWWNVMQYTHLMKHLEFICSTGFDVYQSNIDCIRKGETTDGNQYRACFYKFNATVNANPNNFCGATETFIGCIKDFFDTECNLYVGWMQCELERIGFAYDCYGLSC | not soluble
SMGTRPRRKKHDYRIALFGGSQPQSCRYFNPKDYSWTDIRCPFEKRRDAACVFWDNVVYILGGSQLFPIKRMDCYNVVKDSWYSKLGPPTPRDSLAACAAEGKIYTSGGSEVGNSALYLFECYDTRTESWHTKPSMLTQRCSHGMVEANGLIYVCGGSLGNNVSGRVLNSCEVYDPATETWTELCPMIEARKNHGLVFVKDKIFAVGGQNGLGGLDNVEYYDIKLNEWKMVSPMPWKGVTVKCAAVGSIVYVLAGFQGVGRLGHILEYNTETDKWVANSKVRAFPVTSCLICVVDTCGANEETLET | soluble
MKKLEVKDLKENFFEAIGKEWMLVTAGTKEKFNTMTASWGGIGWLWNKPVAFVFVRPERYTYEFIEKSDYLTLSFLGEANKKIHAVCGSKSGRDTDKVKATGLKPVFTEQGNVLFEQARLSLEGRKLYADNIKPECFLDKESLEKWYDDAHGGFHKMYIVEIENIWEGD | not soluble
MLLQEELEQRTVSVSIQAAKLSGRVLRAAIAAVLQKMEQERTMPKVGRNSMKRLTYKDPGANTIEVSGRIRSFERYARKHQVRYHIEKELGTDPPKWTVYFKANQADALTAAFKEYTKKDLTRSTRPSLLIQLHKFKELAQSLGRDRVKNKEHGGPER | not soluble
MGSDKIHHHHHHMEVAEGEFKPAFPIKPAQQLVFVHIPKCGGTSMHQFLANAKKVQPEPELSTILAGYCEPALHKHSKAAVIRDLVGPALWQTIFTFSVVRNPWDLMLSSYRWWLQKAGRFSSLRAQADEVADLGSFEGFLKSDFGGNRINECEGDILSWLSDENGQEIVDFVGRLEDIEQALQNVFERAGLAGYSEFPRLNSTVRGGYQDYYNAETKRLIQTRFQATIDRFEYQF | not soluble
GHPTLKTPESVTGTWKGDVKIQCIYDPLRGYRQVLVKWLVRHGSDSVTIFLRDSTGDHIQQAKYRGRLKVSHKVPGDVSLQINTLQMDDRNHYTCEVTWQTPDGNQVIRDKIIELRVRK | soluble
ANNLPDTQSSGPAHSKETPALTAVETGATNPLVPSDTVQTRHVIQKRTRSESTVESFFARGACVAIIEVDNDAPTKRASKLFSVWKITYKDTVQLRRKLEFFTYSRFDMEFTFVVTSNYTDANNGHALNQVYQIMYIPPGAPIPGKWNDYTWQTSSNPSVFYTYGAPPARISVPYVGIANAYSHFYDGFAKVPLAGQASTEGDSLYGAASLNDFGSLAVRVVNDHNPTKLTSKIRVYMKPKHVRVWCPRPPRAVPYYGPGVDYKDGLAPLPGKGLTTY | soluble
MSLIQDNEISSSTKTRIKALKFFSRKMLSELNFGGYRSIFKGLGLEFHEFRPYEDSDDARFIDWNVSSKADSIFSKVFKEDRGMNLHLLVDNSLSMSLGDKVNKKDVQDLLVSIFAHMAFFNNDKIGVTFFSSGTDKFIPSSKGHSHLGLILSETINRNLKPGSSLAYIFKNTAEYYKKRSLVIIISDFKANAYFKSLNVLSKRHNVIAIRISDFFDENFPKIGTLICEDIETGENFLVSGFSKSTLSGYKNYWTLDKIKWKKECIKKNISFIEIDTKEDVFKKLKILLKKGQEGHHHHHH | not soluble
MPNVKDITRESWILSTFPEWGTWLNEEIEEEVVAEGNFAMWWLGNCGVWIKTPGGANVVMDLWSNRGKSTKKVKDMVRGHQMANMAGVRKLQPNLRAQPMVIDPFAINELDYYLVSHFHSDHIDINTAAAIINNPNLDHVKFVGPYECGEIWKKWGVPEERIIVIKPGESFEFKDIKVTAVESFDRTCLVTLPVDGAEEHDGELAGLAVTDEEMARKAVNYIFETPGGTIYHGADSHFSNYFAKHGKDYKIDVAINNYGDNPVGIQDKMTSIDLLRMAENLRAKVIIPVHYDIWSNFMASTDEILQLWKMRKERLQYDFHPFIWEVGGKYTYPQDKDRIEYHHPRGFDDCFEQESNIQFKALLMAGDPLEHHHHHH | soluble
MGSDKIHHHHHHMALLFSGGTMSQVQSGILPEHCRAAIWIEANVKGEVDALRAASKTFADKLATFEAKFPDAHLGAVVAFGNNTWRALSGGVGAEELKDFPGYGKGLAPTTQFDVLIHILSLRHDVNFSVAQAAMEAFGDCIEVKEEIHGFRWVEERDLSGFVDGTENPAGEETRREVAVIKDGVDAGGSYVFVQRWEHNLKQLNRMSVHDQEMVIGRTKEANEEIDGDERPETSHLTRVDLKEDGKGLKIVRQSLPYGTASGTHGLYFCAYCARLHNIEQQLLSMFGDTDGKRDAMLRFTKPVTGGYYFAPSLDKLMAL | not soluble
LVKVKREIIRMDHPAIRPEAGRAPAVDAATLRRWLAQGRDDQGRELVMLDTRNAFEVEVGTFRGALDWRIERFTQFPQAVRDNQAALAGKTVVSFCTGGIRCEKAAIYMAEAGIEHVYQLEGGILKYFEETDGAGFDGACFVFDERVALDAALAPQ | not soluble
MDYHSNGNGINGMNGSSRHSADGPSTPTHSGNGHSNGEGNSTYWETAPAEMVELADKYNFTINEGSSIQQEALELRSVIRKDLTKKLKIKSGYSRIKLITSDRRQSEFLRYELSDLNEQIADLQEDLQALEMYNSGAFDEDVMYLDNLEDCDVENGPPSKLVILQLELEKELKVKRGLEQFLRGAPDKSKVHGDSQSLLDDSRAKIAMLRMQIERLSQEAPAVEGEPKTKVELAIDDLIIRFHKEKLIMDGSRNMIRILRSKRKPDSKAVDEAMNSYVIASEKADLIKLALLKYASSLPLEHDHRKYLI | not soluble
MSDLKYTVTADVLNVRSGAGTGHSVISKVKQGQVLQVIGQENGWFKVTVNGQTGYVSGDFVTTGGKTGTTVQQGTGTYTVNVSSLNVRTGPSTSHTVLGSVNKGKTVQVVSEVQDWFKINFNGGTGYVSKDFVTKGGSALEHHHHHH | soluble
MGSDKIHHHHHHMSVNGSQRVDLEVVANLIPPQSRVLDVGSGDGSLLELLQDTKQVDGRGLELSQRGVNECVARGLSVIQGDADKDLEFYPDKGFDFVVLSQTLQATRNPKLVLDELLRIGNRAIVSFPNFGHWRVRLSLFVKGRMPVTQDLPYSWYDTPNIHFCTIRDFVNLCEELGATVEKATALDAAGQKIGLSMPWWFWNFFGQQAVFLLKRN | not soluble
MSLGTILHSELEKFYDPNLIVGNETADDAAVYDLGNGTAIISTTDFFMPIVDDPFDFGRIAATNAISDIFAMGGKPIMGIAILGFPTNVLPAEVAQKIVDGGRFACHQAGIALAGGHSIDSPEPIFGLAVTGVIDTEKVKRNASAKSGCKLYMTKPLGIGILTTAEKKGKLKPEHQGLATAAMCQMNSIGSQFSQVDGVTAMTDVTGFGLLGHLIEICEGSNLSAVVFSDKIKTLDGVKDYIAQGCVPGGTGRNFDSYGHKVGILTEEQKAILCDPQTSGGLLVAVELNSVQTVIDIAKDAGIDLYEVGKLKPKSESDIVVEVKEGHHHHHH | soluble
MPKASLIIRERGLPKREVLLSPDRQWTIGRQLDCSIRLTDAYVSRLHAVINAFLFRGQPLYFIRDAHSRNGTFLNGFPLQHSTLLHHEDVIGVGTTLLVFYYPDMFREISLDECPLEHHHHHH | soluble
GSHMKEPKLSPKQERFIEEYFINDMNATKAAIAAGYSKNSASAIGAENLQKPAIRARIDARLK | soluble
SSEWMKKGPLEWQDYIYKEVRVTASEKNEYKGWVLTTDPVSANIVLVNFLEDGSMSVTGIMGHAVQTVETMNEGDHRVREKLMHLF | soluble
MGHHHHHHGGHMSLAQNDHETVDMLLVGAGIMSATLAVLLKELDPNLKMEVVELQESGAIESSNPWNNAGTGHAGLCELNYTPQSADGSIDIKKAVGINTMFEVSKQLWSHLVAKGTFGSPKTFINPVPHLSFVRGSEGIAYLKKRFESLTKHHAFETMVYSEDKATLAEWMPLMMPGRPADEAIAATRVEGGTDVNFGALTNQLLQHLAQQPGAQIRYNQKVTHLRRADNGWRVTVKDTRNGGDREIQARFVFLGAGGGALPLLQLSGIPEGKGFGGFPVSGQWLRCDNPEIVKQHQAKVYSQAEVGSPPMSVPHLDTRVVDGKKSLLFGPYAGFSTKFLRHGSFLDLPLSVRPGNILPMLSVARDNMDLTRYLIGQVMQSPEQRLEALRKFYPEARAEDWRLEVAGQRVQIIKKDPKKGGILQFGTELVAAHDGSIAALLGASPGASVTVSIMLGLIERCFPEQARSPEWSAKLKEIFPAREKELESDAELYRSVSSRCSEVLELTAKNDVQAEGGS | soluble
AIAAEPIELLCWGGDWDLPSVQTDSLTVLAYAKFAGAELTVKFVDWTWRTITASVPQIHYEGTTVTEPTQILNFLRKQRFNADFELTAKQGADTMAYIALLEEKLRPALLHTFWVDAENYANLTRPWFTSHSPFPLNFFVPGRQASLALSRILLTKAESPLLNITEVEGKIYSEAKECLNLLSHRLGNFNFFFGDTPTSLDAFVFGHIAPLIKAPLPSGQLQKHLNQLDNLCQFCNTILKNYFTDATAEKRMDCSPTVAHDFVDANLQKLTQLVNKESNLIEKMDDNLRSSPQHRPHRHEAKPSAPASDRNSTPA | soluble
